The values below come from PMC4257719.

This assay deals with P. berghei SPECT1Δ41 (amino acids 42-241) (P. berghei). As to the kind of experiment: SEC-MALS; TSK-Gel G3000 SWxl column with multiangle static light scattering; 150 mM NaCl, 50 mM Tris or HEPES, pH 7.4; monomer and dimer fractions run separately; the two species are stable over days.

For the substance “P. berghei SPECT1Δ41 (amino acids 42-241) (domain or fragment)”, the stoichiometry N (usually the number of molecules, sites or subunits per partner or assembly) came to 2.
